Laboratory results: patent US20100292083A1 (Ablynx, published 2010)

T1: human IL6R (human, UniProt P08887 20-358, limits assumed)
T1 construct: Antigen of the Biacore experiments
T1 sequence (looked up): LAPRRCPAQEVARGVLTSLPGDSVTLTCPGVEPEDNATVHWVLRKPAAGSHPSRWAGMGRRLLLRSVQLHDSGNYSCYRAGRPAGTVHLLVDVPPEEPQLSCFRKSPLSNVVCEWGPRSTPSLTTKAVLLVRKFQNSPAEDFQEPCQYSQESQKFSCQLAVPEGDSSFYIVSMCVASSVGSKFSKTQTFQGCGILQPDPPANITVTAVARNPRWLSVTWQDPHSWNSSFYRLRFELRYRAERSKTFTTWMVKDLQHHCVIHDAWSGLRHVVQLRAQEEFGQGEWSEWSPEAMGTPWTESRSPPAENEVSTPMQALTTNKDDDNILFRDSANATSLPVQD

T2: soluble IL6R in human plasma (human, UniProt P08887 20-355, limits assumed)
T2 sequence (looked up): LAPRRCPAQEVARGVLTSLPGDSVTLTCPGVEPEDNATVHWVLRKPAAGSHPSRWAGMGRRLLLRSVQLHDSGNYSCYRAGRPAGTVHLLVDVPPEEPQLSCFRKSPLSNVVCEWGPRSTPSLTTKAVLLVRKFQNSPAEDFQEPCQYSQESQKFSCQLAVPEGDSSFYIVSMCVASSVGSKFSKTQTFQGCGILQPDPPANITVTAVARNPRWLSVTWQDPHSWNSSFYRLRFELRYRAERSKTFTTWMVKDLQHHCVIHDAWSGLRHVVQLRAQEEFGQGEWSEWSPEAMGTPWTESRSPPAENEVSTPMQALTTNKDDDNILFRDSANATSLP

T3: IL6R on the cell-surface of TF-1 cells (UniProt P08887 20-468, limits assumed)
T3 sequence (looked up): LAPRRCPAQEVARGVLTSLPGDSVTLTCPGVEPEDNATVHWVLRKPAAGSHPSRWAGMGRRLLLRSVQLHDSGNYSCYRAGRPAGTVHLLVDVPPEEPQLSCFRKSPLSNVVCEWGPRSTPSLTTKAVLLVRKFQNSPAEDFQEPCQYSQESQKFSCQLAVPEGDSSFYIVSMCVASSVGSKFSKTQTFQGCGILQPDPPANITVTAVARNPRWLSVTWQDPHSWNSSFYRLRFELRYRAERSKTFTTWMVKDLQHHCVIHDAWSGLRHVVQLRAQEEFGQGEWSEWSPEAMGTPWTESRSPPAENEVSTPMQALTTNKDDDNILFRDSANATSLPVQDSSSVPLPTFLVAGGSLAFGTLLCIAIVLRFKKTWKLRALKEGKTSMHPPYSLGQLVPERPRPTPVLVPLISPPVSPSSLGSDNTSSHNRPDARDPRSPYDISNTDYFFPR


Experiments:
human IL6R [1] = target: T1, human IL6R; test: SPR (Biacore), purified Nanobody
Protocol: Binding curves at different concentrations of purified Nanobody were recorded on Biacore and used to calculate values for ka, kd and Kd (Table B-4).

[2] = target: T2, soluble IL6R in human plasma; test: human plasma potency assay: competition ELISA, inhibition of human IL6 binding to soluble IL6R
Protocol: All 5 Nanobodies and the parent Nanobody were also tested in a plasma potency assay. In this assay different concentrations of Nanobody are mixed with soluble IL6R containing plasma from either human or cynomolgus monkey and a fixed concentration of human IL6. After 1 hour of incubation the mixture is transferred to a Maxisorp plate coated with the anti-IL6R MAb BN-12 (Diaclone). The amount of IL6 bound was determined by subsequent addition of biotinylated anti-IL6 polyclonal antibody (R&D Systems) and streptavidin-HRP. TMB was used as substrate. Substrate conversion was measured at 450 nm.

[3] = target: T3, IL6R on the cell-surface of TF-1 cells; test: cell-based or functional assay
[4] = target: soluble IL6R in cynomolgus monkey plasma (cynomolgus monkey, UniProt A0A2K5WN54 60-396); test: cyno plasma potency assay: competition ELISA, inhibition of human IL6 binding to soluble IL6R
soluble IL6R in cynomolgus monkey plasma, sequence (A0A2K5WN54 entry or part of it): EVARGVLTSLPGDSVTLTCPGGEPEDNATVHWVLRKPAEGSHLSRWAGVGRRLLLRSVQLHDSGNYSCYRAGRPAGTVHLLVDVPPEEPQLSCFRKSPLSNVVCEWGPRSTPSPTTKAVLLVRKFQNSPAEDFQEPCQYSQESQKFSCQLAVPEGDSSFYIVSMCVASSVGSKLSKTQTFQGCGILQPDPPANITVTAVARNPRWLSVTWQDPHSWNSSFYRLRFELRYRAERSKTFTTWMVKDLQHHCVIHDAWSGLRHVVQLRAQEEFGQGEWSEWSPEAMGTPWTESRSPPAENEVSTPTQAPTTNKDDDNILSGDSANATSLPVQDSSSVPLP

human IL6R [5] = target: T1, human IL6R; test: SPR (Biacore), periplasmic extract
Protocol: Selection outputs were analyzed by picking individual colonies and growing them overnight in 1 ml 2×YT (Yeast Tryptone) medium+100 ug/ml Carbenicillin at 37 C. Nanobody containing periplasmic extracts were prepared, diluted 1/10 in PBS and subsequently tested for antigen binding in ELISA. Clones with the highest ELISA signals were sequenced and analyzed on Biacore. […] The off-rate of the best clone from the CDR3 library was 7×10e-4 s-1.

| Binder | Kd (human IL6R [1]) [nM] | koff (human IL6R [1]) [s⁻¹] | kon (human IL6R [1]) [M⁻¹ s⁻¹] | IC50 [2] [nM] | Inhibition of IL6-dependent proliferation of TF-1 cells (3H-thymidine incorporation), IC50 [3] [nM] | IC50 [4] [nM] | koff (human IL6R [5]) [s⁻¹] | fold improvement of Kd relative to the parent molecule (IL6R65) (human IL6R [1]) [fold] |
| --- | --- | --- | --- | --- | --- | --- | --- | --- |
| Nanobody IL6R65 (VHH, also called ILR65) VHH: EVQLVESGGGLVQPGGSLRLSCAASGSIFKVNAMGWYRQAPGKGRELVAGIISGGSTNYADSVKGRFTISRDNAKNTLYLQMNSLRPEDTAVYYCAFVTTNSDYDLGRDYWGQGTLVTVSS | 4.3 | 0.00234 | 539000 | 4.93 | 55 | 2.99 |  |  |
| IL6R65PMP7D6 (VHH, Also expressed in E. coli and purified via IMAC) VHH: EVQLVESGGGLVQPGGSLRLSCAASGSIFRVNVMAWYRQAPGKGRELVAAVINGGTTTYADSVKGRFTISRDNAKNTLYLQMNSLRPEDTAVYYCAFVTTNSDYDLGRDYWGQGTLVTVSS | 0.42 | 0.000279 | 672000 | 0.19 | 3.7 | 0.09 | 0.00044 |  |
| IL6R65PMP7C4 (VHH, Also expressed in E. coli and purified via IMAC) VHH: EVQLVESGGGLVQPGGSLRLSCAASGTTFRINVMAWYRQAPGKGRELVAGIITNGSTSYADSVKGRFTISRDNAKNTLYLQMNSLRPEDTAVYYCAFVTTNSDYDLGRDYWGQGTLVTVSS | 0.34 | 0.000177 | 527000 | 0.21 | 2.5 | 0.08 | 0.00043 | 13 |
| IL6R65PMP7F4 (VHH, Also expressed in E. coli and purified via IMAC) VHH: EVQLVESGGGLVQPGGSLRLSCAASGTTFKVNVMAWYRQAPGKGRELVAGIINGGSTTYADSVKGRFTISRDNAKNTLYLQMNSLRPEDTAVYYCAFVTTNSDYDLGRDYWGQGTLVTVSS | 0.48 | 0.000292 | 609000 | 0.24 | 5.2 | 0.09 | 0.00026 |  |
| IL6R65PMP7G8 (VHH, Also expressed in E. coli and purified via IMAC) VHH: EVQLVESGGGLVQPGGSLRLSCAASGSTFRINVMAWYRQAPGKGRELVAGVINDGSTTYADSVKGRFTISRDNAKNTLYLQMNSLRPEDTAVYYCAFVTTNSDYDLGRDYWGQGTLVTVSS | 0.95 | 0.000333 | 352000 | 0.34 | 6.2 | 0.14 | 0.00041 |  |
| IL6R65PMP7G7 (VHH, Also expressed in E. coli and purified via IMAC) VHH: EVQLVESGGGLVQPGGSLRLSCAASGTTFKINIMAWYRQAPGKGRELVAGVITGGNTTYADSVKGRFTISRDNAKNTLYLQMNSLRPEDTAVYYCAFVTTNSDYDLGRDYWGQGTLVTVSS | 0.56 | 0.00031 | 550000 | 0.22 | 3.5 | 0.11 | 0.00037 |  |
